Test results reported in patent US20130209454A1.

Key:
Assay in all cases: cell-based or functional assay
[1] = target: Env of HIV-1 strain C3347.c11 (HIV-1)
[2] = target: Env of HIV-1 strain Du172.17 (HIV-1)
[3] = target: Env of HIV-1 strain 3301.v1.c24 (HIV-1)
[4] = target: Env of HIV-1 strain T257-31 (HIV-1)
[5] = target: Env of HIV-1 strain HIV-001428-2.42 (HIV-1)
[6] = target: Env of HIV-1 strain CNE19 (HIV-1)
[7] = target: Env of HIV-1 strain CNE5 (HIV-1)
[8] = target: Env of HIV-1 strain ZM233M.PB6 (HIV-1)
[9] = target: Env of HIV-1 strain 211-9 (HIV-1)
[10] = target: Env of HIV-1 strain 231965.c01 (HIV-1)
[11] = target: Env of HIV-1 strain 1394C9G1(Rev-) (HIV-1)
[12] = target: Env of HIV-1 strain ZM53M.PB12 (HIV-1)
[13] = target: Env of HIV-1 strain ZM214M.PL15 (HIV-1)
[14] = target: Env of HIV-1 strain X1193_c1 (HIV-1)
[15] = target: Env of HIV-1 strain 3817.v2.c59 (HIV-1)
[16] = target: Env of HIV-1 strain Du422.1 (HIV-1)
[17] = target: Env of HIV-1 strain CNE20 (HIV-1)
[18] = target: Env of HIV-1 strain T251-18 (HIV-1)
[19] = target: Env of HIV-1 strain 7030102001E5(Rev-) (HIV-1)
[20] = target: Env of HIV-1 strain X1254_c3 (HIV-1)
[21] = target: Env of HIV-1 strain Q461.e2 (HIV-1)
[22] = target: Env of HIV-1 strain Ce2060_G9 (HIV-1)
[23] = target: Env of HIV-1 strain BF1266.431a (HIV-1)
[24] = target: HIV-1 Env of strain TRO.11 (HIV-1)
[25] = target: HIV-1 Env of strain CAP210.2.00.E8 (HIV-1)
[26] = target: HIV-1 Env of strain SC422661.8 (HIV-1)
[27] = target: HIV-1 Env of strain AC10.0.29 (HIV-1)
[28] = target: HIV-1 Env of strain CAP45.2.00.G3 (HIV-1)
[29] = target: HIV-1 strain T255-34 envelope (gp120) (HIV-1)
[30] = target: HIV-1 Env of strain ZM249M.PL1 (HIV-1)
[31] = target: HIV-1 Env of strain T255-34 (HIV-1)
[32] = target: HIV-1 strain Ce0393_C3 envelope (gp120) (HIV-1)
[33] = target: HIV-1 strain QH0692.42 envelope (gp120) (HIV-1)
[34] = target: HIV-1 Env of strain ZM109F.PB4 (HIV-1)
[35] = target: HIV-1 strain 928-28 envelope (gp120) (HIV-1)
[36] = target: HIV-1 Env of strain CNE21 (HIV-1)
[37] = target: HIV-1 Env of strain 62357_14_D3_4589 (HIV-1)
[38] = target: HIV-1 strain AC10.0.29 envelope (gp120) (HIV-1)
[39] = target: HIV-1 strain Du172.17 envelope (gp120) (HIV-1)
[40] = target: HIV-1 strain 703357.C02 envelope (gp120) (HIV-1)
[41] = target: HIV-1 strain 3718.v3.c11 envelope (gp120) (HIV-1)
[42] = target: HIV-1 Env of strain X1254_c3 (HIV-1)
[43] = target: HIV-1 Env of strain Ce0682_E4 (HIV-1)
[44] = target: HIV-1 Env of strain 235-47 (HIV-1)
[45] = target: HIV-1 Env of strain 3365.v2.c2 (HIV-1)
[46] = target: HIV-1 Env of strain BJOX010000.06.2 (HIV-1)
[47] = target: HIV-1 Env of strain 191821_E6_1 (HIV-1)
[48] = target: HIV-1 Env of strain 263-8 (HIV-1)
[49] = target: HIV-1 Env of strain SC05_8C11_2344 (HIV-1)
[50] = target: HIV-1 Env of strain 6545.v4.c1 (HIV-1)
[51] = target: HIV-1 Env of strain CNE19 (HIV-1)

B1: NIH45-46^G54W(HC) S28Y(LC) (antibody, V domains shown)
VH: QVRLSQSGGQMKKPGESMRLSCRASGYEFLNCPINWIRLAPGRRPEWMGWLKPRWGAVNYARKFQGRVTMTRDVYSDTAFLELRSLTSDDTAVYFCTRGKYCTARDYYNWDFEHWGRGAPVTVSS
VL: EIVLTQSPATLSLSPGETAIISCRTSQYGSLAWYQQRPGQAPRLVIYSGSTRAAGIPDRFSGSRWGADYNLSISNLESGDFGVYYCQQYEFFGQGTKVQVDI
IC80 [1]: 0.034 µg/mL | IC80 [2]: 0.125 µg/mL | IC80 [3]: 0.006 µg/mL | IC80 [4]: 0.471 µg/mL | IC80 [5]: 0.002 µg/mL | IC80 [6]: 0.102 µg/mL | IC80 [7]: 0.137 µg/mL | IC80 [8]: 0.083 µg/mL | IC80 [9]: 0.898 µg/mL | IC80 [10]: 0.035 µg/mL | IC80 [11]: 0.055 µg/mL | IC80 [12]: 0.257 µg/mL | IC80 [13]: 0.258 µg/mL | IC80 [14]: 0.054 µg/mL | IC80 [15]: > 50 µg/mL | IC80 [16]: > 50 µg/mL | IC80 [17]: 0.02 µg/mL | IC80 [18]: 1.43 µg/mL | IC80 [19]: 0.229 µg/mL | IC80 [20]: 0.03 µg/mL | IC80 [21]: 0.134 µg/mL | IC80 [22]: 0.062 µg/mL | IC80 [23]: 0.013 µg/mL

B2: NIH45-46^G54W IgG (antibody, name in Kabat numbering, V domains shown)
VH: QVRLSQSGGQMKKPGESMRLSCRASGYEFLNCPINWIRLAPGRRPEWMGWLKPRWGAVNYARKFQGRVTMTRDVYSDTAFLELRSLTSDDTAVYFCTRGKYCTARDYYNWDFEHWGRGAPVTVSS
VL: EIVLTQSPATLSLSPGETAIISCRTSQSGSLAWYQQRPGQAPRLVIYSGSTRAAGIPDRFSGSRWGADYNLSISNLESGDFGVYYCQQYEFFGQGTKVQVDI
neutralization IC50 [24]: 0.09 µg/mL | neutralization IC50 [25]: 41 µg/mL | neutralization IC50 [26]: 0.03 µg/mL | neutralization IC50 [27]: 0.2 µg/mL | neutralization IC50 [28]: 6.6 µg/mL | neutralization IC80 [29]: 0.099 µg/mL | neutralization IC50 [30]: 0.002 µg/mL | improvement of neutralization potency over NIH45-46 [31]: > 700 fold | neutralization IC50 [31]: < 0.001 µg/mL | neutralization IC80 [32]: 0.089 µg/mL | neutralization IC80 [33]: 1.12 µg/mL | neutralization IC50 [34]: 0.002 µg/mL | neutralization IC80 [35]: 0.25 µg/mL | neutralization IC50 [36]: 0.03 µg/mL | neutralization IC50 [37]: 0.02 µg/mL | neutralization IC80 [38]: 0.63 µg/mL | neutralization IC80 [39]: 42.9 µg/mL | neutralization IC80 [40]: 17.6 µg/mL | neutralization IC80 [41]: 0.04 µg/mL | neutralization IC50 [42]: 0.002 µg/mL | neutralization IC50 [43]: 0.01 µg/mL

B3: NIH45-46^G54W(HC), S28Y(LC) (antibody, V domains shown)
VH: QVRLSQSGGQMKKPGESMRLSCRASGYEFLNCPINWIRLAPGRRPEWMGWLKPRWGAVNYARKFQGRVTMTRDVYSDTAFLELRSLTSDDTAVYFCTRGKYCTARDYYNWDFEHWGRGAPVTVSS
VL: EIVLTQSPATLSLSPGETAIISCRTSQYGSLAWYQQRPGQAPRLVIYSGSTRAAGIPDRFSGSRWGADYNLSISNLESGDFGVYYCQQYEFFGQGTKVQVDI
IC50, pseudovirus neutralization [44]: 0.001 µg/mL | IC50, pseudovirus neutralization [45]: 0.014 µg/mL | IC50, pseudovirus neutralization [30]: 0.001 µg/mL | IC50, pseudovirus neutralization [31]: 0.013 µg/mL | IC50, pseudovirus neutralization [46]: 1.38 µg/mL | IC50, pseudovirus neutralization [47]: 0.05 µg/mL | IC50, pseudovirus neutralization [34]: 0.013 µg/mL | IC50, pseudovirus neutralization [36]: 0.001 µg/mL | IC50, pseudovirus neutralization [37]: 0.015 µg/mL | IC50, pseudovirus neutralization [48]: 0.018 µg/mL | IC50, pseudovirus neutralization [49]: 0.07 µg/mL | IC50, pseudovirus neutralization [50]: 15.2 µg/mL | IC50, pseudovirus neutralization [42]: 0.006 µg/mL | IC50, pseudovirus neutralization [43]: 0.007 µg/mL | IC50, pseudovirus neutralization [51]: 0.022 µg/mL
